# In the supplement of paper PMC10567573:
# B1: DUSP5 (parent)
# chain: YSEYPECCVDVKPISQEKIESERA
# B2: NP_009172.2 (parent)
# chain: LPALFTDLYSQEITAEEAREALP
# Variants of: B1
# Test: protein stability index of a GFP-peptide fusion (GPS, HEK-293T) (PSI 1-6); higher = more stable
# Settings: c terminus: a fixed tail appended
row,Variant,protein stability index
1,A24Q,4.18
2,A24G,3.82
3,A24V,3.89
4,A24L,4.26
5,A24Y,3
6,A24N,4.1
7,A24E,4.9
8,A24F,2.43
9,A24P,3.88
10,A24D,4.45
11,A24H,3.73
12,A24W,3.44
13,A24I,4.16
14,A24K,3.82
15,S21V,4.36
16,S21Y,3.76
17,S21W,3.61
18,E22R,3.18
19,E22D,4.24
20,E22W,2.88
21,E22I,3.54
22,E22Q,3.54
23,E22L,2.27
24,E22K,3.43
25,E22T,4.17
26,E22M,3.65
27,E22Y,2.58

row,Variant,protein stability index
1,E22F,3.6
2,E22A,4.36
3,E22S,3.56
4,E22P,3.45
5,E22N,3.59
6,E22V,3.05
7,E22C,3.51
8,E22H,4
9,R23C,4.98
10,R23H,4.52
11,R23F,3.73
12,R23T,4.44
13,R23K,4.65
14,R23Y,3.71
15,R23L,4.18
16,R23N,4.34
17,R23E,4.39
18,R23D,4.41
19,R23S,4.38
20,R23W,3.41
21,R23M,3.91
22,R23Q,4.34
23,R23V,3.88
24,R23A,4.23
25,R23I,4.24
26,R23G,4.42
27,R23P,4.55

# Variants of: B2
# Test: as above
# Settings: c terminus: native
row,Variant,protein stability index
1,L8V,2.81
2,L8A,3.14
3,L8I,2.59
4,L8W,3.27
5,L8R,2.22
6,L8S,4.05
7,L8P,5.43
8,L8T,3.69
9,L8Y,2.53
10,L8Q,2.91
11,L8D,5.11
12,L8E,4.59
13,L8F,3.05
14,L8G,5.28
15,L8K,2.39
16,L8C,3.77
17,L8M,2.24
18,L8N,3.46
19,L8H,2.56
20,P2S,2.71
21,P2M,2.79
22,P2G,3.03
23,P2R,2.28
24,P2V,2.46
25,P2I,2.37
26,P2A,2.69

row,Variant,protein stability index
1,P2L,2.48
2,P2C,2.64
3,P2N,2.59
4,P2W,2.66
5,P2E,3.51
6,P2T,2.51
7,P2D,3.64
8,P2F,2.54
9,P2Q,2.69
10,P2K,2.5
11,P2H,2.52
12,P2Y,2.85
13,L4R,2.21
14,L4D,4.87
15,L4F,2.99
16,L4A,3.64
17,L4E,5.24
18,L4I,4.64
19,L4P,4.94
20,L4W,3.98
21,L4K,2.77
22,L4H,3.54
23,L4T,2.27
24,L4G,2.69
25,L4N,2.76
26,L4V,4.59

row,Variant,protein stability index
1,L4M,3.19
2,L4Y,3.47
3,L4S,2.55
4,L4Q,3.62
5,L4C,2.64
6,A3Q,2.22
7,A3S,2.74
8,A3R,2.43
9,A3W,2.42
10,A3T,2.56
11,A3V,2.49
12,A3D,4.1
13,A3I,2.43
14,A3P,2.62
15,A3L,2.56
16,A3Y,2.62
17,A3E,3.66
18,A3G,2.68
19,A3K,2.1
20,A3F,2.76
21,A3C,2.64
22,A3N,2.96
23,A3M,2.47
24,A3H,2.81
25,S10R,2.71
26,S10T,2.38

row,Variant,protein stability index
1,S10D,2.8
2,S10Y,2.36
3,S10G,3.08
4,S10M,2.26
5,S10K,2.48
6,S10A,2.52
7,S10E,2.48
8,S10H,2.85
9,S10I,1.95
10,S10W,2.26
11,S10L,2.3
12,S10V,2.35
13,S10P,3.79
14,S10N,2.61
15,S10Q,2.57
16,S10F,2.57
17,S10C,2.16
18,L1G,2.77
19,L1P,2.49
20,L1F,2.59
21,L1T,2.4
22,L1C,2.5
23,L1N,2.86
24,L1A,2.95
25,L1K,1.72
26,L1W,2.68

row,Variant,protein stability index
1,L1M,2.91
2,L1I,2.63
3,L1H,2.6
4,L1Q,2.5
5,L1E,2.96
6,L1D,3.9
7,L1S,2.32
8,L1R,2.22
9,L1V,2.59
10,L1Y,2.5
11,Q11G,3.59
12,Q11M,2.54
13,Q11Y,2.67
14,Q11L,2.65
15,Q11E,2.88
16,Q11S,3.04
17,Q11I,2.52
18,Q11F,2.52
19,Q11A,2.7
20,Q11K,2.4
21,Q11N,2.92
22,Q11C,2.95
23,Q11W,2.63
24,Q11H,2.76
25,Q11R,2.26
26,Q11V,2.79

row,Variant,protein stability index
1,Q11P,3.82
2,Q11D,3.31
3,Q11T,3.21
4,A15G,2.83
5,A15S,2.67
6,A15N,2.66
7,A15K,2.56
8,A15F,2.53
9,A15M,2.51
10,A15C,3
11,A15T,3.05
12,A15I,2.76
13,A15E,2.55
14,A15R,2.36
15,A15L,2.53
16,A15P,3.05
17,A15H,2.6
18,A15Q,2.84
19,E12T,3.03
20,E12N,3.79
21,E12P,3.77
22,E12L,3.04
23,E12C,3.19
24,E12H,3.39
25,E12Y,3.07
26,E12I,3.15

row,Variant,protein stability index
1,E12Q,2.69
2,E12K,2.92
3,E12S,3.13
4,E12R,2.59
5,E12F,3.01
6,E12V,3.38
7,E12D,2.99
8,E12A,3.56
9,E12G,3.78
10,E12W,2.21
11,E12M,2.93
12,I13K,2.66
13,I13N,3.46
14,I13R,2.1
15,I13D,3.25
16,I13A,2.97
17,I13L,2.71
18,I13W,2.15
19,I13P,3.87
20,I13F,2.69
21,I13H,2.71
22,I13G,3.81
23,I13M,2.53
24,I13T,3.09
25,I13V,2.46
26,I13Q,2.98

row,Variant,protein stability index
1,I13E,3.25
2,I13S,3.26
3,I13Y,2.69
4,I13C,2.57
5,T6H,4.28
6,T6E,3.68
7,T6R,3.15
8,T6A,2.34
9,T6P,5.24
10,T6W,4.06
11,T6S,2.55
12,T6L,3.54
13,T6D,5.37
14,T6C,3.02
15,T6G,4.09
16,T6M,3.69
17,T6V,2.24
18,T6N,4.77
19,T6Q,2.18
20,T6Y,4.5
21,T6I,2.7
22,T6K,3.32
23,T6F,4.22
24,D7Q,2.63
25,D7M,2.71
26,D7E,2.46

row,Variant,protein stability index
1,D7N,3.52
2,D7Y,2.56
3,D7A,2.88
4,D7V,2.58
5,D7K,3.33
6,D7P,4.4
7,D7L,2.61
8,D7H,3.13
9,D7W,2.48
10,D7G,4.02
11,D7R,2.77
12,D7T,2.57
13,D7S,3.08
14,D7C,3.44
15,D7I,2.49
16,D7F,2.6
17,T14V,2.51
18,T14N,2.76
19,T14F,2.48
20,T14P,3.48
21,T14E,2.66
22,T14H,2.46
23,T14L,2.48
24,T14D,2.55
25,T14A,2.21
26,T14Y,2.56

row,Variant,protein stability index
1,T14M,2.45
2,T14W,2.62
3,T14I,2.25
4,T14K,2.34
5,T14R,2.44
6,T14S,2.67
7,T14G,2.73
8,T14C,2.48
9,T14Q,2.27
10,F5E,5.38
11,F5I,5.08
12,F5Y,3.72
13,F5K,5.25
14,F5G,5.28
15,F5Q,5.24
16,F5W,2.25
17,F5T,5.25
18,F5C,5.41
19,F5N,5.52
20,F5R,5.42
21,F5S,5.37
22,F5V,5.07
23,F5A,5.41
24,F5D,5.58
25,F5P,5.3
26,F5L,5.16

row,Variant,protein stability index
1,F5M,5.24
2,Y9C,2.42
3,Y9T,2.74
4,Y9W,2.65
5,Y9R,5.15
6,Y9M,3.13
7,Y9H,4.49
8,Y9D,5.38
9,Y9S,3.98
10,Y9I,1.88
11,Y9L,2.39
12,Y9P,5.13
13,Y9K,5.39
14,Y9F,2.81
15,Y9A,2.34
16,Y9V,2.21
17,Y9Q,5.15
18,Y9G,5.3
19,Y9N,5.01
20,Y9E,5.17
